US20170253660A1

Target: T1, B7-H3 on LAN-1 cells (human) (UniProt Q5ZPR3)
T1 sequence (looked up): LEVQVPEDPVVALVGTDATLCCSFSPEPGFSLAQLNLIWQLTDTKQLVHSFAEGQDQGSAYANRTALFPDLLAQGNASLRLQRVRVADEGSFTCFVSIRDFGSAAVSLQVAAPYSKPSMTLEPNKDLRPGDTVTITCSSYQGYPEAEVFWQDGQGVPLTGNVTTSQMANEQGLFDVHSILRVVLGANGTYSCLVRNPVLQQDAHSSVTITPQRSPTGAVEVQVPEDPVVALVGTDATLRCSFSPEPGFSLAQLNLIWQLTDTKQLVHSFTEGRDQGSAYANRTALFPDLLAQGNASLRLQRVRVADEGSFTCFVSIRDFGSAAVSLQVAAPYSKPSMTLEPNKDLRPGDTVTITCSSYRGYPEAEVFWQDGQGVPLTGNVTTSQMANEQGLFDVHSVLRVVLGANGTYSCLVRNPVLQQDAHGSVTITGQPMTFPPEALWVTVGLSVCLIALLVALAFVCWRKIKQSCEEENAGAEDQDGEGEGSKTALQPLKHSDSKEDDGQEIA
Test: flow cytometry wash-off on LAN-1 cells, FITC-labeled goat anti-mouse second antibody

B1: 8H9 (antibody, INN chains, looked up, mouse IgG1, V domains shown)
VH: QVQLQQSGAELVKPGASVKLSCKASGYTFTNYDINWVRQRPEQGLEWIGWIFPGDGSTQYNEKFKGKATLTTDTSSSTAYMQLSRLTSEDSAVYFCARQTTATWFAYWGQGTLVTVSA
VL: DIVMTQSPATLSVTPGDRVSLSCRASQSISDYLHWYQQKSHESPRLLIKYASQSISGIPSRFSGSGSGSDFTLSINSVEPEDVGVYYCQNGHSFPLTFGAGTKLELK
**Q.** How did the retention on cells after 10 washes (MFI as percent of the baseline after first wash) turn out when B1 was run?
**A.** 80%
